Our source for the self-cleavage values is the RNAGym collection of RNA variant scans (doi:10.7554/elife.80360).

The chains are these.
B1: CPEB3 Ribozyme (parent)
chain: GGGGGCCACAGCAGAAGCGUUCACGUCGCGGCCCCUGUCAGAUUCUGGUGAAUCUGCGAAUUCUGCUGU

The variants in the data set derive from B1. The data set is described as follows: self-cleavage, relative activity (ratio to wild type); higher = more cleavage; co-transcriptional.
On to GGGGGCGACAGCAGAAGCGUUAACGUCGCGGCCCCUGUCAGAUUCUGGUGAAUCUGCGAAUUCUGCUGU [C7G C22A], for which the self-cleavage turned out to be 0.104. Under GGGGGCGACAGCAGAAGCGUUGACGUCGCGGCCCCUGUCAGAUUCUGGUGAAUCUGCGAAUUCUGCUGU [C7G C22G] stands 0.0908; under GGGGGCAACAGCAGAAGCAUUCACGUCGCGGCCCCUGUCAGAUUCUGGUGAAUCUGCGAAUUCUGCUGU [C7A G19A], 0.14. Then GGGGGCAACAGCAGAAGCGUUCACGUCGCGGCCCCUGUCAGAUUCUGGUCAAUCUGCGAAUUCUGCUGU [C7A G50C], with 0.545; and GGGGGCGACAGCAGAAGCGUUCGCGUCGCGGCCCCUGUCAGAUUCUGGUGAAUCUGCGAAUUCUGCUGU [C7G A23G], with 0.333. Turning to GGGGGCGACAGCAGAAGCGUUCUCGUCGCGGCCCCUGUCAGAUUCUGGUGAAUCUGCGAAUUCUGCUGU [C7G A23U], the self-cleavage is 0.645. Take GGGGGCAACAGCAGAAGCGUUCACGUCGCGUCCCCUGUCAGAUUCUGGUGAAUCUGCGAAUUCUGCUGU [C7A G31U]: the self-cleavage was found to be 0.598.

As for GGGGGCAACAGCAGAAGCGUUCACGUCGCGGCCCCUGUCAGAUUCUGCUGAAUCUGCGAAUUCUGCUGU [C7A G48C], the self-cleavage worked out at 0.681. Then GGGGGCAACAGCAGAAGCGUUCACGUCGCGGCCCCUGGCAGAUUCUGGUGAAUCUGCGAAUUCUGCUGU [C7A U38G], with 0.0677. Under GGGGGCAACAGCAGAAGCGUUCACGUCGCGGCCCCUGUCAGAUUCUGGUGAAUCUGGGAAUUCUGCUGU [C7A C57G] stands 0.179; under GGGGGCAACAGCAGAAGCGUUCACGUCGCGGCCCCUGUCAGAGUCUGGUGAAUCUGCGAAUUCUGCUGU [C7A U43G], 0.373; under GGGGGCAACAGCAGAAGCGUUCACGUCGCGGCCCCUGUCAGAAUCUGGUGAAUCUGCGAAUUCUGCUGU [C7A U43A], 0.266. Then GGGGGCGACAGCAGAAGCGUUCACGUCGCAGCCCCUGUCAGAUUCUGGUGAAUCUGCGAAUUCUGCUGU [C7G G30A], with 0.791; and GGGGGCGACAGCAGAAGCGUUCACGUCGCCGCCCCUGUCAGAUUCUGGUGAAUCUGCGAAUUCUGCUGU [C7G G30C], with 1.01; and GGGGGCAACAGCAGAAGCGUUCACGUCGCGGCCCCAGUCAGAUUCUGGUGAAUCUGCGAAUUCUGCUGU [C7A U36A], with 0.127. With GGGGGCAACAGCAGAAGCGUUCACGUCGCGGCCCCUGUCAGAUUCUGGUGAAUCUGCGAAUUCCGCUGU [C7A U64C], the self-cleavage was 0.336. Under GGGGGCAACAGCAGAAGCGUUCACGUCGCGGCCCCUGUCAGAUUCUGGUGAAUGUGCGAAUUCUGCUGU [C7A C54G] stands 0.101. For GGGGGCAACAGCAGAAGCGUUCACGUCGCGGCCCCUGUCAGAUUCUGGUGAAUCUGCGAAAUCUGCUGU [C7A U61A], the self-cleavage amounted to 0.169. Under GGGGGCGACAGCAGAAGCGUUCACAUCGCGGCCCCUGUCAGAUUCUGGUGAAUCUGCGAAUUCUGCUGU [C7G G25A] stands 0.107; under GGGGGCGACAGCAGAACCGUUCACGUCGCGGCCCCUGUCAGAUUCUGGUGAAUCUGCGAAUUCUGCUGU [C7G G17C], 0.112; under GGGGGCGACAGCAGAAUCGUUCACGUCGCGGCCCCUGUCAGAUUCUGGUGAAUCUGCGAAUUCUGCUGU [C7G G17U], 0.0489. Turning to GGGGGCGACAGCAGAAGAGUUCACGUCGCGGCCCCUGUCAGAUUCUGGUGAAUCUGCGAAUUCUGCUGU [C7G C18A], the self-cleavage was determined as 0.0277. Under GGGGGCGACAGCAGAAGCGUUCACGUCGCGGCCCAUGUCAGAUUCUGGUGAAUCUGCGAAUUCUGCUGU [C7G C35A] stands 0.13; under GGGGGCAACAGCAGAAGCGUUCACGUCGCGGCCCCUUUCAGAUUCUGGUGAAUCUGCGAAUUCUGCUGU [C7A G37U], 0.0728.

Turning to GGGGGCAACAGCAGAAGCGUUCACGUCGCGGCCCCUAUCAGAUUCUGGUGAAUCUGCGAAUUCUGCUGU [C7A G37A], the self-cleavage was found to be 0.133. Under GGGGGCAACAGCAGAAGCGUUCACGUCGCGGCCCCUCUCAGAUUCUGGUGAAUCUGCGAAUUCUGCUGU [C7A G37C] stands 0.122; under GGGGGCAACAGCAGAAGCGUUCACGUCGCGGCCCCUGUCAGAUUCUGGUGAAUCUGCGAAUGCUGCUGU [C7A U62G], 0.29.

GGGGGCGACAGCAGAAGCGUUCACGUCGCGGCCCCUGUCAGAUUCUGGUGAAUCUGCGACUUCUGCUGU [C7G A60C]: the self-cleavage worked out at 0.196. Then GGGGGCGACACCAGAAGCGUUCACGUCGCGGCCCCUGUCAGAUUCUGGUGAAUCUGCGAAUUCUGCUGU [C7G G11C], with 0.157; and GGGGGCGACAUCAGAAGCGUUCACGUCGCGGCCCCUGUCAGAUUCUGGUGAAUCUGCGAAUUCUGCUGU [C7G G11U], with 0.175; and GGGGGCGACAGCAGAAGCCUUCACGUCGCGGCCCCUGUCAGAUUCUGGUGAAUCUGCGAAUUCUGCUGU [C7G G19C], with 0.106. With GGGGGCAACACCAGAAGCGUUCACGUCGCGGCCCCUGUCAGAUUCUGGUGAAUCUGCGAAUUCUGCUGU [C7A G11C], the self-cleavage was found to be 0.305. Under GGGGGCAACAGCAGAAGCGUUCACGUCGCGGCCCCUGUCAGAUUCUGGUGAAUCUGCGAAUUCUGCUGC [C7A U69C] stands 1; under GGGGGCGACAGCAGAAGCGUUCACGUCGCGGCCCCUGUCAGAUUCUGGUGAAUCUGCGCAUUCUGCUGU [C7G A59C], 0.148. Then GGGGGCGACAGCAGAAGCGUUCACGUCGCGGCCCCUGUCAGAUUCUGGUGAAUCUGCGUAUUCUGCUGU [C7G A59U], with 0.167; and GGGGGCAACAGCAGAAGCGUUCACGACGCGGCCCCUGUCAGAUUCUGGUGAAUCUGCGAAUUCUGCUGU [C7A U26A], with 0.176. Under GGGGGCAACAGCAGAAGCGUUCACGUCGCGGCCCCUGUCAGAUUCUAGUGAAUCUGCGAAUUCUGCUGU [C7A G47A] stands 0.612; under GGGGGCAACAGCAGAAGCGUUCACGUCGCGGCCCCUGUCAGAUUCUUGUGAAUCUGCGAAUUCUGCUGU [C7A G47U], 0.637; under GGGGGCAACAGCAGAAGCGUUCACGUCGCGGCCCCUGUCAGAUUCUCGUGAAUCUGCGAAUUCUGCUGU [C7A G47C], 0.593.
